{
  "source": "paper PMC2809015",
  "about": "(Biochemistry, 2009)",
  "binders": {"B1": {"name": "BioB containing one [2Fe-2S]2+ cluster per monomer (enzyme, E. coli, UniProt P12996 1-346, looked up)", "chain": "MAHRPRWTLSQVTELFEKPLLDLLFEAQQVHRQHFDPRQVQVSTLLSIKTGACPEDCKYCPQSSRYKTGLEAERLMEVEQVLESARKAKAAGSTRFCMGAAWKNPHERDMPYLEQMVQGVKAMGLEACMTLGTLSESQAQRLANAGLDYYNHNLDTSPEFYGNIITTRTYQERLDTLEKVRDAGIKVCSGGIVGLGETVKDRAGLLLQLANLPTPPESVPINMLVKVKGTPLADNDDVDAFDFIRTIAVARIMMPTSYVRLSAGREQMNEQTQAMCFMAGANSIFYGCKLLTTPNPEEDKDLQLFRKLGLNPQQTAVLAGDNEQQQRLEQALMTPDTDEYYNAAAL"}, "B2": {"name": "HscA substrate binding domain (SBD-HscA, residues 389-616) (domain or fragment, E. coli, UniProt P0A6Z1 389-616, looked up)", "chain": "LDVIPLSLGLETMGGLVEKVIPRNTTIPVARAQDFTTFKDGQTAMSIHVMQGERELVQDCRSLARFALRGIPALPAGGAHIRVTFQVDADGLLSVTAMEKSTGVEASIQVKPSYGLTDSEIASMIKDSMSYAEQDVKARMLAEQKVEAARVLESLHGALAADAALLSAAERQVIDDAAAHLSEVAQGDDVDAIEQAIKNVDKQTQDFAARRMDQSVRRALKGHSVDEV"}},
  "key": {"[1]": {"target": "T1, HscA, Hsp70-class molecular chaperone of the isc operon (E. coli, UniProt P0A6Z1 1-616)", "T1 sequence (looked up)": "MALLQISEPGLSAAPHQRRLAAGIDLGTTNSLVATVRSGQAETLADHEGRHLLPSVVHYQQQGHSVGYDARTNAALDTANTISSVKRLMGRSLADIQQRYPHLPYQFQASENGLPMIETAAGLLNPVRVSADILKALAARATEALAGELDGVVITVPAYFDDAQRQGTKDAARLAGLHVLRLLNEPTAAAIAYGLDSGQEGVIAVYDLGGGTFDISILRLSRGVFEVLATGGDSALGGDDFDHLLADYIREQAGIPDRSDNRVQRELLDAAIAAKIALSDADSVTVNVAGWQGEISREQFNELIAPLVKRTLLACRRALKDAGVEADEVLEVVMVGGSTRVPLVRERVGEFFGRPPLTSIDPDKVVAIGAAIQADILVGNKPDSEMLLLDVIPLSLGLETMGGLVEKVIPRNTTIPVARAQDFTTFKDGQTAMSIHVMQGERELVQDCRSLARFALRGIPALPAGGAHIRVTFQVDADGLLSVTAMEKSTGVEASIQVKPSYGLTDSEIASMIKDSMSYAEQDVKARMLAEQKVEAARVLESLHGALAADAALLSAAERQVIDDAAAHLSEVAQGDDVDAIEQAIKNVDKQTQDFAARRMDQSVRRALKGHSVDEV", "assay": "molecular weight filtration assay"}, "[2]": {"target": "T1, HscA, Hsp70-class molecular chaperone …", "assay": "AUC"}, "[3]": {"target": "T1, HscA, Hsp70-class molecular chaperone …", "assay": "molecular weight filtration assay", "remark": "listed apart in the source"}, "[4]": {"target": "B2", "assay": "molecular weight filtration assay"}, "[5]": {"target": "the molecule itself", "assay": "AUC"}, "[6]": {"target": "T1, HscA, Hsp70-class molecular chaperone …", "assay": "molecular weight filtration assay", "remark": "listed apart in the source"}, "[7]": {"target": "T1, HscA, Hsp70-class molecular chaperone …", "assay": "molecular weight filtration assay", "remark": "listed apart in the source"}, "[8]": {"target": "the molecule itself", "assay": "AUC", "remark": "listed apart in the source"}, "[9]": {"target": "B1", "assay": "molecular weight filtration assay"}},
  "note": "Where “and” joins values, the source holds several entries; their conditions need not be identical. Equal entries are not always repeated. Where two headings read alike, the source gives them in different places.",
  "data": [
    {"binder": "B1", "values": [
      {"measurement": "Kd", "setting": "[1]", "value": "~5", "unit": "µM"},
      {"measurement": "Kd", "setting": "[2]", "value": 12, "unit": "µM"},
      {"measurement": "stoichiometry N", "setting": "[2]", "value": "1 HscA per BioB dimer and 2 HscA per BioB dimer"},
      {"measurement": "stoichiometry N", "setting": "[3]", "value": "~1", "unit": "HscA per BioB dimer"},
      {"measurement": "stoichiometry N", "setting": "[4]", "value": 1},
      {"measurement": "stoichiometry N", "setting": "[5]", "value": 2},
      {"measurement": "Kd", "setting": "[6]", "value": "5.5 µM and 5.6 µM"}
    ]},
    {"binder": "dethiobiotin synthase (BioD) (enzyme) SKRYFVTGTDTEVGKTVASCALLQAAKAAGYRTAGYKPVASGSEKTPEGLRNSDALALQRNSSLQLDYATVNPYTFAEPTSPHIISAQEGRPIESLVMSAGLRALEQQADWVLVEGAGGWFTPLSDTFTFADWVTQEQLPVILVVGVKLGCINHAMLTAQVIQHAGLTLAGWVANDVTPPGKRHAEYMTTLTRMIPAPLLGEIPWLAENPENAATGKYINLALL", "values": [
      {"measurement": "Kd", "setting": "[7]", "value": "≥ 1100", "unit": "µM"}
    ]},
    {"binder": "BioB apoprotein (His6-biotin synthase lacking both iron-sulfur clusters) (enzyme, E. coli, UniProt P12996 1-346, looked up) MAHRPRWTLSQVTELFEKPLLDLLFEAQQVHRQHFDPRQVQVSTLLSIKTGACPEDCKYCPQSSRYKTGLEAERLMEVEQVLESARKAKAAGSTRFCMGAAWKNPHERDMPYLEQMVQGVKAMGLEACMTLGTLSESQAQRLANAGLDYYNHNLDTSPEFYGNIITTRTYQERLDTLEKVRDAGIKVCSGGIVGLGETVKDRAGLLLQLANLPTPPESVPINMLVKVKGTPLADNDDVDAFDFIRTIAVARIMMPTSYVRLSAGREQMNEQTQAMCFMAGANSIFYGCKLLTTPNPEEDKDLQLFRKLGLNPQQTAVLAGDNEQQQRLEQALMTPDTDEYYNAAAL", "values": [
      {"measurement": "stoichiometry N", "setting": "[8]", "value": 2},
      {"measurement": "stoichiometry N", "setting": "[3]", "value": 0.96, "unit": "apoBioB dimer per HscA"}
    ]},
    {"binder": "BioB containing both [2Fe-2S]2+ and [4Fe-4S]2+ clusters (enzyme, E. coli, UniProt P12996 1-346, looked up) MAHRPRWTLSQVTELFEKPLLDLLFEAQQVHRQHFDPRQVQVSTLLSIKTGACPEDCKYCPQSSRYKTGLEAERLMEVEQVLESARKAKAAGSTRFCMGAAWKNPHERDMPYLEQMVQGVKAMGLEACMTLGTLSESQAQRLANAGLDYYNHNLDTSPEFYGNIITTRTYQERLDTLEKVRDAGIKVCSGGIVGLGETVKDRAGLLLQLANLPTPPESVPINMLVKVKGTPLADNDDVDAFDFIRTIAVARIMMPTSYVRLSAGREQMNEQTQAMCFMAGANSIFYGCKLLTTPNPEEDKDLQLFRKLGLNPQQTAVLAGDNEQQQRLEQALMTPDTDEYYNAAAL", "values": [
      {"measurement": "stoichiometry N", "setting": "[3]", "value": "~1", "unit": "HscA per BioB dimer"}
    ]},
    {"binder": "B2", "values": [
      {"measurement": "Kd", "setting": "[9]", "value": "0.55 ± 0.3", "unit": "µM"}
    ]}
  ]
}
